Series [1] can be described thus: Activity of rLipC or cutinase on p-nitrophenyl esters (release of p-NP at 410 nm). Type of series: biochemical. To be noted: for Specific Activity, pNP-butyrate (C4): substrate pNP-butyrate (C4); for Specific Activity, pNP-butyrate (C4) / Specific Activity, pNP-caprate (C10) / Specific Activity, pNP-caprylate (C8) / Specific Activity, pNP-laurate (C12) / Specific Activity, pNP-myristate (C14) / Specific Activity, pNP-valerate (C5): 1 mM, Tris buffer pH 8.0, 300 mM NaCl, 4 mM NaTDC, 15 min; for Specific Activity, pNP-caprate (C10): substrate pNP-caprate (C10); for Specific Activity, pNP-caprylate (C8): substrate pNP-caprylate (C8); for Specific Activity, pNP-laurate (C12): substrate pNP-laurate (C12); for Specific Activity, pNP-myristate (C14): substrate pNP-myristate (C14); for Specific Activity, pNP-valerate (C5): substrate pNP-valerate (C5).

Series [2] in a line: pH-stat, fluorescent and spectrophotometric assays for lipase or phospholipase activity on various lipids. It counts as biochemical. From the text: rLipC activity was also investigated using pH-stat, fluorescent and spectrophotometric assays for various lipids, as well as phospholipids, to detect lipase or phospholipase activity, respectively.

With “Cutinase F. solani: cutinase from F. solani, comparison enzyme [reference compound]”, in series [1], the “Specific Activity, pNP-butyrate (C4)” value was determined as 382 ± 22 U · mg^−1; the “Specific Activity, pNP-caprate (C10)” value worked out at 9 ± 1 U · mg^−1; the “Specific Activity, pNP-caprylate (C8)” value amounted to 14 ± 3 U · mg^−1; the “Specific Activity, pNP-laurate (C12)” value is given as 1 ± 0.4 U · mg^−1. For the same molecule, in series [1], the “Specific Activity, pNP-myristate (C14)” value is given as 1 ± 0.2 U · mg^−1 and the “Specific Activity, pNP-valerate (C5)” value was 78 ± 0.5 U · mg^−1.

B1: Rv0220: M. tuberculosis Lip family protein Rv0220 (LipC), recombinant; shown not to be a lipolytic enzyme (protein, UniProt P96402 1-403, looked up)
Esterase LipC: MNQRRAAGSTGVAYIRWLLRARPADYMLALSVAGGSLPVVGKHLKPLGGVTAIGVWGARHASDFLSATAKDLLTPGINEVRRRDRASTQEVSVAALRGIVSPDDLAVEWPAPERTPPVCGALRHRRYVHRRRVLYGDDPAQLLDVWRRKDMPTKPAPVLIFVPGGAWVHGSRAIQGYAVLSRLAAQGWVCLSIDYRVAPHHRWPRHILDVKTAIAWARANVDKFGGDRNFIAVAGCSAGGHLSALAGLTANDPQYQAELPEGSDTSVDAVVGIYGRYDWEDRSTPERARFVDFLERVVVQRTIDRHPEVFRDASPIQRVTRNAPPFLVIHGSRDCVIPVEQARSFVERLRAVSRSQVGYLELPGAGHGFDLLDGARTGPTAHAIALFLNQVHRSRAQFAKEVI
In the case of B1, in series [1], the “Specific Activity, pNP-butyrate (C4)” value is 133 × 10^−3 U · mg^−1; the “Specific Activity, pNP-caprate (C10)” value is given as 2 × 10^−3 U · mg^−1; the “Specific Activity, pNP-caprylate (C8)” value is 22 × 10^−3 U · mg^−1; the “Specific Activity, pNP-laurate (C12)” value is recorded as 0 U · mg^−1. In addition, in series [1], the “Specific Activity, pNP-myristate (C14)” value is 0 U · mg^−1 and the “Specific Activity, pNP-valerate (C5)” value is 111 × 10^−3 U · mg^−1. The “Hydrolysis of esters function associated with a fatty acyl chain having more than 10 carbons” value in series [1] (summary of Table 1) is on record as “not able to hydrolyse”. Further, the “Long-chain triglycerides (TG) hydrolysis” value in series [2] (cloned and characterized protein, see example 1) is on record as “no long-chain triglycerides (TG) hydrolysis was detected”. Moreover, in series [2] (pH-stat, fluorescent and spectrophotometric assays, whatever the carbon chain length), the “Activity on triglycerides, diglycerides or monoglycerides as substrate” value is listed as “does not show any activity”.

Source of the values: patent publication US9274110B2, “Diagnosis method of active tuberculosis” (priority 2011, dated 2016).
